Source: the supplement of paper PMC9732359
± gives the uncertainty stated by the source.

Assay: protein stability index of a GFP-peptide fusion (yeast GPS) (PSI 1-4); higher = more stable; sorted into four equal gates, so the index is relative within each strain
Outline: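 Plasmids in a pooled yeast library fused tiled 17-residue yeast protein peptides downstream of GFP and also expressed Cherry. Mid-log cultures grown without leucine were sorted into four equal gates by GFP/Cherry fluorescence ratio. Each gate's plasmids were PCR-amplified and Illumina-sequenced, and reads were matched to strains by barcodes. The protein stability index is derived by multiplying each gate's read frequency by its gate number and summing the results.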

Sequence | protein stability index (doa10∆) | protein stability index (pdr5∆) | protein stability index (san1∆) | protein stability index (ubr1∆)
FLANHKDRLYCGKCHSV [RPS31] | 2.38 ± 0.17 | 2.61 ± 0.13 | 2.02 ± 0.16 | 2.69 ± 0.082
GATSKPAFSFGAKPEEK [YJL041W/NSP1] | 3.05 ± 0.098 | 3.4 ± 0.092 | 3.31 ± 0.074 | 3.11 ± 0.073
RGKDCTVVISQKKVPDK [SCL1] | 2.59 ± 0.086 | 2.83 ± 0.076 | 2.83 ± 0.074 | 2.71 ± 0.051
KFELGRQPANTKIGAKR [RPS8A] | 2.87 ± 0.06 | 3.1 ± 0.068 | 2.91 ± 0.11 | 3.18 ± 0.055
TSCLQNNNQKIDDNYIV [SRB8] | 3.15 ± 0.072 | 3.1 ± 0.081 | 3.33 ± 0.11 | 3.05 ± 0.062
FEYCRIDGSTSHEERIE [ISW2] | 2.44 ± 0.047 | 2.23 ± 0.052 | 2.01 ± 0.061 | 2.49 ± 0.05
RNSFIRDMIMKRNSDKV [ITC1] | 2.84 ± 0.16 | 2.86 ± 0.14 | 2.29 ± 0.16 | 2.83 ± 0.2
VGSLVVKSSMGPAFRLY [RPL1A] | 3.07 ± 0.059 | 2.95 ± 0.055 | 3.14 ± 0.051 | 2.73 ± 0.055
EQQVAEEATTEEAGEEE [RPS0A] | 2.89 ± 0.14 | 2.82 ± 0.24 | 2.6 ± 0.19 | 
IKFKKCDGDTVWDKFAV [SSN2] | 3 ± 0.052 | 3.03 ± 0.048 | 2.87 ± 0.046 | 2.75 ± 0.046
KSNDSEGDFLKSIIGKL [POP1] | 1.28 ± 0.12 | 2.91 ± 0.088 | 1.93 ± 0.11 | 1.3 ± 0.15
SKKRKLNSLTNLLSKRN [SNM1] | 2.87 ± 0.071 | 2.99 ± 0.059 | 2.84 ± 0.055 | 2.81 ± 0.057
KVPIGLILQRLKDLNLT [RGR1] | 2.48 ± 0.1 | 2.57 ± 0.09 | 2.98 ± 0.074 | 2.63 ± 0.053
LARSGLRIGRIEDVTPV [RPS14B] | 1.63 ± 0.046 | 1.95 ± 0.052 | 2.25 ± 0.062 | 2.07 ± 0.043
NNSSITLRCSVVEACGN [YCS4] | 1.78 ± 0.064 | 1.23 ± 0.056 | 1.13 ± 0.14 | 1.25 ± 0.041
LAGVLYESRNVAKRRFE [RRP6] | 2.76 ± 0.066 | 3.12 ± 0.061 | 2.93 ± 0.077 | 3.12 ± 0.047
KFQKLLQNSERDVELSS [SMC4] | 2.82 ± 0.065 | 3.18 ± 0.048 | 2.94 ± 0.041 | 3.05 ± 0.052
AQTEIKLFNKWSFEEVE [RPS5] | 3.2 ± 0.092 | 3.23 ± 0.11 | 3.51 ± 0.09 | 3.22 ± 0.069
VLKESIVNICDIQEEQV [PUP1] | 3.15 ± 0.22 | 3.04 ± 0.22 | 3.33 ± 0.14 | 
GALHFVQQSEKLRNEVE [YIL149C/MLP2] | 3.17 ± 0.14 | 3.16 ± 0.22 |  | 3.16 ± 0.12
QILSVAIPNGIHLQRFD [RPO21] | 2.41 ± 0.1 | 2.33 ± 0.075 | 1.94 ± 0.1 | 2.77 ± 0.079
IVNGTEKVILVQEQLSK [RET1] | 1.54 ± 0.13 | 2.22 ± 0.057 | 1.53 ± 0.11 | 2.29 ± 0.088
KTSSGSYNYVENGIEVE [ITC1] | 3.31 ± 0.18 | 3.2 ± 0.2 | 2.95 ± 0.12 | 3.31 ± 0.17
TLNNIFRFDSIQRETLL [GRR1] | 2.88 ± 0.075 | 2.59 ± 0.081 | 2.75 ± 0.052 | 3.1 ± 0.04
IASKMSLAPEADLDSLI [RPT3] | 2.62 ± 0.1 | 2.81 ± 0.13 | 2.1 ± 0.12 | 3.07 ± 0.19
NNVSFNAKDIQIPVYDT [FAS1] | 2.36 ± 0.041 | 2.49 ± 0.046 | 2.18 ± 0.048 | 2.64 ± 0.041
